Three molecules from patent publication US12678474B2, “Screening of fixed-point coupling sites of cysteine-modified antibody-toxin conjugate (TDC)” (SICHUAN BAILI PHARMACEUTICAL CO. LTD., priority 2017, dated 2026) can be followed below.

Sequences and labels used below:
B1: 2A1-HC-Cys378ins: 2A1 antibody with cysteine inserted at heavy chain position 378 (SEQ ID NO: 36) (antibody)
heavy: DVQLQESGPSLVKPSQSLSLTCTVTGYSITSDFAWNWIRQFPGNKLEWMGYISYSGNTRYNPSLKSRISITRDTSKNQFFLQLNSVTIEDTATYYCVTAGRGFPYWGQGTLVTVSAASTKGPSVFPLAPSSKSTSGGTAALGCLVKDYFPEPVTVSWNSGALTSGVHTFPAVLQSSGLYSLSSVVTVPSSSLGTQTYICNVNHKPSNTKVDKRVEPKSCDKTHTCPPCPAPEFLGGPSVFLFPPKPKDTLMISRTPEVTCVVVDVSHEDPEVKFNWYVDGVEVHNAKTKPREEQYNSTYRVVSVLTVLHQDWLNGKEYKCKVSNKALPAPIEKTISKAKGQPREPQVYTLPPSRDELTKNQVSLTCLVKGFYPSDIAVEWCESNGQPENNYKTTPPVLDSDGSFFLYSKLTVDKSRWQQGNVFSCSVMHEALHNHYTQKSLSLSPG
light: DILMTQSPSSMSVSLGDTVSITCHSSQDINSNIGWLQQRPGKSFKGLIYHGTNLDDEVPSRFSGSGSGADYSLTISSLESEDFADYYCVQYAQFPWTFGGGTKLEIKRTVAAPSVFIFPPSDEQLKSGTASVVCLLNNFYPREAKVQWKVDNALQSGNSQESVTEQDSKDSTYSLSSTLTLSKADYEKHKVYACEVTHQGLSSPVTKSFNRGEC
B2: 2A1-HC-Cys410ins: 2A1 antibody with cysteine inserted at heavy chain position 410 (SEQ ID NO: 44) (antibody)
heavy: DVQLQESGPSLVKPSQSLSLTCTVTGYSITSDFAWNWIRQFPGNKLEWMGYISYSGNTRYNPSLKSRISITRDTSKNQFFLQLNSVTIEDTATYYCVTAGRGFPYWGQGTLVTVSAASTKGPSVFPLAPSSKSTSGGTAALGCLVKDYFPEPVTVSWNSGALTSGVHTFPAVLQSSGLYSLSSVVTVPSSSLGTQTYICNVNHKPSNTKVDKRVEPKSCDKTHTCPPCPAPEFLGGPSVFLFPPKPKDTLMISRTPEVTCVVVDVSHEDPEVKFNWYVDGVEVHNAKTKPREEQYNSTYRVVSVLTVLHQDWLNGKEYKCKVSNKALPAPIEKTISKAKGQPREPQVYTLPPSRDELTKNQVSLTCLVKGFYPSDIAVEWESNGQPENNYKTTPPVLDSDGSFFLYSKLTVDCKSRWQQGNVFSCSVMHEALHNHYTQKSLSLSPG
light: B1 light
B3: 2A1-HC-Cys387ins: 2A1 antibody with cysteine inserted at heavy chain position 387 (SEQ ID NO: 42) (antibody)
heavy: B1 heavy with C381E, E382S, S383N, N384G, G385Q, Q386P, P387E, E388N, N390C
light: B1 light

Substitutions are numbered along the chain they refer to.

For one experiment, the target named is T1, Recombinant EGFRVIII-His*6 antigen (Homo sapiens, UniProt P00533, DELINS30-297G).
T1 construct: His*6
The experiment is described as follows: ELISA relative affinity for EGFRvIII. Format: binding. The following applies: EGFRvIII-coated plates, A450, read-out: EC50 (nM), mutant antibody affinity. From the text:
Insertion Mutation Modification and Parent Antibody 2A1 for EGFRvIII • ELISA was used to compare the relative affinities of 2A1-LC-Cys110ins-mc-vc-PAB-MMAE TDC, 2A1-LC-Cys111ins-mc-vc-PAB-MMAE TDC, 2A1-LC-Cys142ins-mc-vc-PAB-MMAE TDC, 2A1-HC-Cys254ins-mc-vc-PAB-MMAE TDC, 2A1-HC-Cys255ins-mc-vc-PAB-MMAE TDC, 2A1-HC-Cys258ins-mc-vc-PAB-MMAE TDC, 2A1-HC-Cys259ins-mc-vc-PAB-MMAE TDC, 2A1-HC-Cys354ins-mc-vc-PAB-MMAE TDC, 2A1-HC-Cys355ins-mc-vc-PAB-MMAE TDC, 2A1-HC-Cys357ins-mc-vc-PAB-MMAE TDC, 2A1-HC-Cys378ins-mc-vc-PAB-MMAE TDC, 2A1-HC-Cys379ins-mc-vc-PAB-MMAE TDC, 2A1-HC-Cys386ins-mc-vc-PAB-MMAE TDC, 2A1-HC-Cys387ins-mc-vc-PAB-MMAE TDC, 2A1-HC-Cys410ins-mc-vc-PAB-MMAE TDC, and 2A1 for EGFRvIII. The specific process used was as follows:
Recombinant […]-His*6 antigen was used to coat plates; fish skin gelatin was used as a seal; dilution of each insertion mutant antibody was performed separately, up to a maximum concentration 10 μg/ml and a 4-fold gradient dilution was performed for a total of 11 concentrations; HRP-labeled secondary antibodies were used for incubation; TMB was used for development and absorption detection was performed at 450 nm.
(An ELISA detects its analyte on a solid surface through an enzyme-linked reagent.)
Broadly, the EC50 is the concentration at which the effect is half-maximal. Regarding B1, the EC50 amounted to 0.0404 nM.

B2: the EC50 amounted to 0.042 nM.

On to B3, for which the EC50 was 0.0452 nM.

The test system of the next experiment is EGFRwt-overexpressing human skin squamous cell carcinoma cell line A431. The experiment is described as follows: MTS cytotoxicity (cell viability) assay, A431. Format: cell-based. The following applies: antibodies; 72 hours. On the procedure:
(§1) TDC cytotoxic activity was determined via the following experimental procedure: TDC was added to EGFR-overexpressing or […]-expressing human tumor cell culture medium, and cell viability was determined after 72 hours of cell culture. Cell-based in vitro experiments were used to determine cell viability, cytotoxicity and programmed cell death induced by TDC constituted by the present invention.
(§2) In vitro efficacy of antibody-toxin conjugates was determined via a cell proliferation assay. A CellTiter ^96® AqueousOne Solution Cell was Proliferation Assay purchased commercially from Promega Corp. (Madison, WI). CellTiter ^96® Aqueous One Solution Cell Proliferation Assay (a) is a colorimetric method used to detect the number of living cells in cell proliferation and cytotoxicity experiments. The above reagent contains the novel tetrazole compound [3-(4,5-dimethylthiazol-2-yl)-5-(3-carboxymethoxyphenyl)-2-(4-sulfophenyl)-2H-tetrazolium, inner salt; MTS) as well as an electronic coupling agent (phenazine ethosulfate; PES). […] This convenient “single solution” model is an improvement on the first generation of the CellTiter ^96® Aqueous Assay, in which the electronic coupling agent PMS was supplied separately from the MTS solution. MTS (Owen's reagent) is reduced by cellular organisms into a colored formazan product, which can be directly dissolved in culture medium (FIG. 1). This conversion is likely facilitated by NADPH NADH produced by dehydrogenase present in metabolically active cells. For the assay, a small amount of CellTiter ^96® Aqueous One Solution Reagent is added directly to the medium present in the wells of the culture plate, after which incubation is performed for 1 to 4 hours, followed by reading of the absorbance value at 490 nm using a microplate reader.
(§3) The amount of formazan product detected at 490 nm is proportional to the number of viable cells in culture. Because the formazan product of MTS is soluble in tissue culture medium, CellTiter ^96® Aqueous One Solution Assay requires fewer steps than the MTT or INT methods. A431 (EGFR-overexpressing cells) and U87-[…] (an […] mutant stable cell line) were used in the present invention as an investigative system for performing in vitro efficacy assays. In 96-well plates, cells were plated at 6000 cells/well and 24 hours later, antibody spiking was carried out. […] Cell viability was assayed via MTS 72 hours after treatment.
As a reminder, the IC50 is the concentration at which inhibition is half-maximal. In the case of B1, the IC50 is over 10 µM.

For B2, the IC50 is over 10 µM.

As for B3, the IC50 is over 10 µM.

Another experiment deals with EFGRvIII-overexpressing human glioma cell line U87-EGFRvIII. The experiment is described as follows: MTS cytotoxicity (cell viability) assay, U87-EGFRvIII. Format: cell-based. The conditions noted are these: antibodies; 72 hours; read-out: IC50, U87MG-EGFRvIII (MTS). On the procedure:
as §1, §2, §3
For B1, the IC50 is over 10 µM.

Regarding B2, the IC50 was over 10 µM.

For the molecule B3, the IC50 was over 10 µM.
